{
  "source": "patent US9150655B2",
  "about": "“Anti-C-met antibody and methods of use thereof” (ACADEMIA SINICA, priority 2010, dated 2015)",
  "molecules": {"B1": {"name": "S21: soluble anti-c-Met scFv corresponding to phage clone PC21; VH/VL sequences in Table 1 (protein)", "scFv": "MAEVQLVESGPGLVKPSGTLSLKCDASAISMDSNYWWSWLRQPPGKGLEWIGEISHSGSTDYNPSLKSRATISIDKSKKQFFLRLKSVTAADTAVYYCAGLLSPLDAFDEWGQGTMVTVGGGGSGGGGSGGGGSDIQMTQSPSSLSASVGDRVTITCRASQRVATYLNWYQQKPGKAPNLLIYEASSLQSGVPSRFSGRRSGTDFTLTISSLQPEDFATYYCQQSYNTPYTFGQGTRLEIKR", "modifications": "left off: small tags and cut ends"}, "B2": {"name": "PC1: phage-displayed anti-c-Met scFv, phage clone 1 (protein)", "scFv": "MAQVQLQQSGPGLVKPSQTLSLTCDISGDSVSSNSAAWNWIRQSPSRGLEWLGRTYYRSRWYNEYAVSVRGRISINAETSKNQFSLQLNSVTPEDTAIYYCARAGFCSGGNCYPGSEDAFDLWGQGTMVTVGGGGSGGGGSGGGGSDVVMTQSPPSLSVSVGDRVTITCRASQDITNDLNWYQQKPGKAPQLLIYHASELETGVPSRFSGSGFGTDFTLTISSLQPADIATYYCQQYDDLPLTFGGGTKVEIKR", "modifications": "left off: large carriers"}},
  "key": {"c-Met932-Fc protein": {"target": "T1, c-Met932-Fc protein (Homo sapiens, UniProt P08581)", "T1 construct": "DNA fragments encoding amino acid residues 1 to 932 and 1 to 567 of c-Met were amplified by PCR; made in house; host or cells: 293T cells, transient transfection, protein G purification from supernatant", "T1 sequence (P08581 25-307)": "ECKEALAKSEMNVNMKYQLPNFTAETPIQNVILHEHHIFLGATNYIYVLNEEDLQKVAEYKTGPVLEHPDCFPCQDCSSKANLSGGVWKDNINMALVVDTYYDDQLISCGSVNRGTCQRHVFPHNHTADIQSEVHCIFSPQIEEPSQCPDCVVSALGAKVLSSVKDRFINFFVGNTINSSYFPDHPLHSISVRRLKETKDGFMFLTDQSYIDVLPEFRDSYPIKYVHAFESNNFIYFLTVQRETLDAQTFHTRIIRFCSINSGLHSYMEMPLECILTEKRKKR", "T1 sequence (P08581 308-932)": "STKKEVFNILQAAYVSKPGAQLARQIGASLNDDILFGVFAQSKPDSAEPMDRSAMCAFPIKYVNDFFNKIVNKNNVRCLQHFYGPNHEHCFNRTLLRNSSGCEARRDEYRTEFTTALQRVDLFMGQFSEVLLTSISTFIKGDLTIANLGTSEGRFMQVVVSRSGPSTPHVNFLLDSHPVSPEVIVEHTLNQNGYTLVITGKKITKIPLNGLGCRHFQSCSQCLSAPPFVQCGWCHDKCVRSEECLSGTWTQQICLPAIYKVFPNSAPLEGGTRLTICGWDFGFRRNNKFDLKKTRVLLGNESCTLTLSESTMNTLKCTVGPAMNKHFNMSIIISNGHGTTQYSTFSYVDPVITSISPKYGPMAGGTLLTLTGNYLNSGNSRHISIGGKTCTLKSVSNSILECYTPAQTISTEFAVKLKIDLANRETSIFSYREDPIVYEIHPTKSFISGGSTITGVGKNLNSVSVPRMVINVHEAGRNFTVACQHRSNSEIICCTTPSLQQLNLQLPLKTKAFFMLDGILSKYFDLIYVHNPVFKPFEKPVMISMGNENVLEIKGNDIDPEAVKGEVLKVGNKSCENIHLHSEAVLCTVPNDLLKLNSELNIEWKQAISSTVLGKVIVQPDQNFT", "test": "Binding kinetics of anti-c-Met scFv by SPR (BIAcore)", "method": "The affinity and kinetics of anti-c-Met scFv were measured by SRP in BIAcore X (GE healthcare). In BIAcore flowcell, 30 μg/ml of c-MetF932-Fc protein was coupled to EDC- and NHS-activated CM5 sensor chip followed by blocking with ethanolamine according to manufacturer's directions. Associated and dissociated phases were monitored for 3 and 5 min, respectively, under continuous flow of 30 μl/min using scFv concentrations ranging 5 to 200 nM. Regeneration was performed by injection of regenerate buffer (0.2 M NaCl, 10 mM glycine, pH 2.7). To determine binding constants, the sensorgrams were fit globally to a sample 1:1 interaction model using BIAevaluation software (GE healthcare).\nBinding kinetic constants (Kon and Koff) and affinity of each soluble scFv for c-Met932-Fc protein were measured by Surface Plasmon Resonance (SPR).\nKon and Koff were measured by SRP in a BIAcore using purified scFvs, and the Kd was calculated by BIAevaluation software."}, "c-MetF932-Fc protein": {"target": "T2, c-MetF932-Fc protein (Homo sapiens, UniProt P08581)", "T2 construct": "DNA fragments encoding amino acid residues 1 to 932 and 1 to 567 of c-Met were amplified by PCR; made in house; host or cells: 293T cells, transient transfection, protein G purification from supernatant", "T2 sequence (P08581 25-307 limits assumed)": "as the sequence (P08581 25-307) above", "T2 sequence (P08581 308-932 limits assumed)": "as the sequence (P08581 308-932) above", "test": "Competitive ELISA: soluble scFv inhibit HGF binding to immobilized c-Met protein", "conditions": "different concentrations of soluble scFv", "method": "To monitor inhibition effect of scFv, we coated the c-MetF932-Fc protein on a 96-well plate and blocked nonspecific binder with 3% BSA in PBS. 1 nM human HGF (R&D) plus varying concentrations of anti-c-Met scFv or normal mouse IgG were applied to the wells. The amount of HGF bound to c-Met was determined using goat anti-human HGF (R&D), following incubation of HRP-labeled mouse anti-goat IgG (Jackson ImmunoResearch) and OPD substrate (Sigma) plus H2O2. The absorbance was measured with 490 nm using a microplate reader. Inhibition percentage was calculated by the following equation: [(the absorbance of HGF bound without competitor)−(the absorbance of HGF bound with competitor)]/(the absorbance of HGF bound without competitor)×100%.\n(§1) To test whether the three anti-c-Met scFvs could inhibit HGF binding to c-Met, the human lung cancer cell line H1993 was chosen to undergo competition ELISA (Lutterbach B et al. (2007) Cancer Res 67:2081-2088). […] HGF binding to H1993 cells without competitors was considered 100%. H1993 is known to express a high level of c-Met. When H1993 cells were incubated with HGF in the presence of the phage clones, the binding of HGF to H1993 cells was diminished by more than 90% by the anti-c-Met scFv PC1. PC20 inhibited more than 50% of HGF binding to c-Met (FIG. 2, panel A). The competitive inhibition of HGF by different concentrations of soluble scFvs was also tested. Normal mouse IgG (NMIgG) was used as a negative control. HGF binding to immobilized c-Met protein without competitors was considered 100%."}, "c-Met567-Fc protein": {"target": "T3, c-Met567-Fc protein (Homo sapiens, UniProt P08581)", "T3 construct": "DNA fragments encoding amino acid residues 1 to 932 and 1 to 567 of c-Met were amplified by PCR; made in house; host or cells: 293T cells, transient transfection, protein G purification from supernatant", "T3 sequence (P08581 25-567)": "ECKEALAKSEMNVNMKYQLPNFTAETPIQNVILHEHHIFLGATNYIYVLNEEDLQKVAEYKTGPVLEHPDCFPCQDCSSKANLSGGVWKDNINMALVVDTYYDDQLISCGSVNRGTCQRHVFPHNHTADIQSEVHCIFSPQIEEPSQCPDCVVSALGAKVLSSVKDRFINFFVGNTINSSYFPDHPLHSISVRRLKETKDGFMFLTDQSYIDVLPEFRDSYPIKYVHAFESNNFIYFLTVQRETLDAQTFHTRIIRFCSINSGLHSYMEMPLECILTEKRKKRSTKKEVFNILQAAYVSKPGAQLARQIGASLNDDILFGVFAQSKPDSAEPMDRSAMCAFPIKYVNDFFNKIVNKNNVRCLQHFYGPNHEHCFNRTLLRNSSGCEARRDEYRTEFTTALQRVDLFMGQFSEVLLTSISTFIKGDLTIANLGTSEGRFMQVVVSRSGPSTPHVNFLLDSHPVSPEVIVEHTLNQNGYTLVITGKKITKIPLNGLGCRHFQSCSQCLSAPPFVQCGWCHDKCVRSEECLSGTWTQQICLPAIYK", "test": "Epitope ELISA on c-Met932-Fc and c-Met567-Fc", "assay_type": "binding", "conditions": "immobilized recombinant proteins", "method": "Therefore, binding epitopes of anti-c-Met scFvs localized within HGF binding domain of c-Met were investigated. The binding ability of anti-c-Met scFvs was examined for c-Met932-Fc protein including whole extracellular domain of c-Met, and c-Met567-Fc protein containing Sema and PSI domain, both of which have been defined as HGF binding regions (FIG. 2, panel C). The c-Met recombinant proteins were immobilized on titer wells, and incubated with anti-c-Met scFvs. Anti-c-Met polyclonal antibody and anti-E tag antibody was used as a positive and negative control, respectively. […] The binding intensity of S1 for c-Met932-Fc was similar to that for c-Met567-Fc."}, "[1]": {"target": "T4, 293T cells ectopically expressing human c-Met (Homo sapiens, UniProt P08581)", "T4 construct": "The DNA encoding full-length c-Met was amplified by PCR; expressed in transfected cells; host or cells: 293T cells transfected with pEF-c-Met expression vector", "test": "Phage binding to c-Met-overexpressing 293T cells (flow cytometry, immunofluorescence)", "assay_type": "cell-based", "conditions": "293T overexpressing c-Met vs 293T; flow cytometry and immunofluorescence", "method": "For immunofluorescence staining assay, 293T cells were grown on coverslips to 80% confluence. Transfection of the cells with pEF-c-Met expression vector was performed using Lipofectamin 2000 (Invitrogen) according to manufacturer's instructions. At 48 hrs post-transfection, the cells were incubated with the selected anti-c-Met phage or control phage, by 1×10^10 phage titer for 30 min at 4° C. After the cells were washed twice with PBS, they were fixed by 4% paraformaldehyde, permeabilized with 0.1% TritonX-100 and blocked with 3% BSA. […] The fluorescence images were captured by inverted fluorescence microscope (Axiovert 200M, Zeiss).\nFor flow cytometry analysis, 293T cells were grown to 80% confluence and transfected with pEF-c-Met expression vector as described above. […] Analysis was performed using FACSCantoll (BD) and emission fluorescence intensity was measured by FACSDiva software (BD) to quantitatively compare their binding affinities\nTo examine the specificity and binding affinity of the three phage clones, a comparative ELISA using the same phage titer was performed. […] The three clones were assessed for binding to cell-surface c-Met by flow cytometry and immunofluorescence assay using 293T cells ectopically expressing human c-Met. […]"}, "[2]": {"target": "T5, c-Met expressed on H1993 cells (Homo sapiens, UniProt P08581)", "T5 construct": "H1993 is known to express a high level of c-Met; endogenous in cells; host or cells: H1993", "T5 sequence (P08581 25-1390)": "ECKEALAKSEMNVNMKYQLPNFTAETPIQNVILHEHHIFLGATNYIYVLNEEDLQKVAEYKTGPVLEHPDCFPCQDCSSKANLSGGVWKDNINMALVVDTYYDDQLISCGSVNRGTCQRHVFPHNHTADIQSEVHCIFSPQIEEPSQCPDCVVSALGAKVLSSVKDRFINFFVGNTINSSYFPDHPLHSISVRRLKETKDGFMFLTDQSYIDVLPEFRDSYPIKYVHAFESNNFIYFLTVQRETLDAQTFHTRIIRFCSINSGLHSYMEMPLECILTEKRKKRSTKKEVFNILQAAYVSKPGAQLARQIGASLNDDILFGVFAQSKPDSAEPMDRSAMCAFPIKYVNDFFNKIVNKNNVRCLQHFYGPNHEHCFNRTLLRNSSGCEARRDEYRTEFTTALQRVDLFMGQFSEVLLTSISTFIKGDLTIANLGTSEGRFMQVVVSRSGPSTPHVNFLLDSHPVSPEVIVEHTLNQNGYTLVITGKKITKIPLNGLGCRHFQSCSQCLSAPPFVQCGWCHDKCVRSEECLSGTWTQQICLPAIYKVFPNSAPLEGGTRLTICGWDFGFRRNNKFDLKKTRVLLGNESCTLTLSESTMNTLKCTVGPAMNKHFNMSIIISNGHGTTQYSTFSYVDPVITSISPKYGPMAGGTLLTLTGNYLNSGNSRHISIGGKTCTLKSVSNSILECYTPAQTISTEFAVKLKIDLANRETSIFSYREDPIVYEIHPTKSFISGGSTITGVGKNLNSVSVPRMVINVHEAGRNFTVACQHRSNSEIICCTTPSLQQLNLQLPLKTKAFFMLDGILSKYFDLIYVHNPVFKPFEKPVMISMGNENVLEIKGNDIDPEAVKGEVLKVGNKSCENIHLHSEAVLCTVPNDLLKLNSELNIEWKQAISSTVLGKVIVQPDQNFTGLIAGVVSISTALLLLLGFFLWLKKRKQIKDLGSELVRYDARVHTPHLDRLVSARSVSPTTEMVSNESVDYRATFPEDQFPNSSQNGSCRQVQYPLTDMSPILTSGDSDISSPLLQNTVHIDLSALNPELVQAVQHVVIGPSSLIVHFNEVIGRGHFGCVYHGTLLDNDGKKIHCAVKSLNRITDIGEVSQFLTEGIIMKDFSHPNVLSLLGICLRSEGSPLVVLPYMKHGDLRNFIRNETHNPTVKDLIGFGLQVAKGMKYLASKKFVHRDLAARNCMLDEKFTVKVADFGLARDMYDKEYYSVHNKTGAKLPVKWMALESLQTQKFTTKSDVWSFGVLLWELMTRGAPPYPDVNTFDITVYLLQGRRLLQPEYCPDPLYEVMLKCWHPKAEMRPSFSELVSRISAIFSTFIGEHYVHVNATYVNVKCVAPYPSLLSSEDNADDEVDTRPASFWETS", "test": "Competition ELISA: phage clones inhibit HGF binding to H1993 cells", "conditions": "phage-displayed scFv; HGF binding without competitors = 100%", "method": "as §1"}, "c-Met-Fc protein": {"target": "T6, c-Met-Fc protein (Homo sapiens, UniProt P08581)", "T6 construct": "Fc; purchased R&D", "T6 sequence (P08581 with tags, fused parts or gaps limits assumed)": "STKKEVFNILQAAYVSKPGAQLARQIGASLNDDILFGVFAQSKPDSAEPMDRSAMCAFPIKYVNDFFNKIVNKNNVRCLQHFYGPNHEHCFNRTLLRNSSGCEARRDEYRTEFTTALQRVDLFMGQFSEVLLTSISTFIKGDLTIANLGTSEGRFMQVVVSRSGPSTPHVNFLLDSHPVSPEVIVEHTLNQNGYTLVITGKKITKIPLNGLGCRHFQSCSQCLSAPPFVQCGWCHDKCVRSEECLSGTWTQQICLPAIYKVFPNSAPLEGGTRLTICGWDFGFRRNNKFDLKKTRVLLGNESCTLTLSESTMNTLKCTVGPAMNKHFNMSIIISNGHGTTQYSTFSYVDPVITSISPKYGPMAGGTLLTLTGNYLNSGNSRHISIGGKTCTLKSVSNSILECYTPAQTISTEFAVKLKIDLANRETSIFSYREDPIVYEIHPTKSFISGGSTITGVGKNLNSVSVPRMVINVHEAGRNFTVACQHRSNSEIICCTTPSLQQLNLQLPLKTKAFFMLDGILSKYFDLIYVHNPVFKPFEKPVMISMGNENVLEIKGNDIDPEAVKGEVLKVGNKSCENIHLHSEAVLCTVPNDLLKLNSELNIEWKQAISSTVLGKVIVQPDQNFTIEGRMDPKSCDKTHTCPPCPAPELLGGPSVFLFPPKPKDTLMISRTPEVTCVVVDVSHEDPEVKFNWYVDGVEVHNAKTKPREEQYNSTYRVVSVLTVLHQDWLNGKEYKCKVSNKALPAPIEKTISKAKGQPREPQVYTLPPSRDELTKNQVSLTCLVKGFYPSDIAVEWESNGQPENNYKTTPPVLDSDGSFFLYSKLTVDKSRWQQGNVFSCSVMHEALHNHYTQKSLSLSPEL", "T6 sequence (P08581 25-307 limits assumed)": "as the sequence (P08581 25-307) above", "test": "Phage ELISA for binding to c-Met-Fc protein", "conditions": "same phage titer", "method": "Selection of phages displaying specific anti-c-Met scFv was performed by protein G dynabeads (Invitrogen). c-Met-Fc recombinant protein (R&D) was incubated with protein G dynabeads at room temperature (RT) for 1 hr. The scFv library (2×10^9 members) was subtracted non-specific binding in protein G dynabeads and subsequently incubated with c-Met-Fc immobilized dynabeads for 1 hr at 4° C. Unbound phages were removed by washing 4 times with PBST. The phages that bound to c-Met-Fc were recovered by infection with E. coli TG1 cells at 37° C. for 30 min. Part of the infected cells were serial diluted to determine titer, and the others were rescued by M13KO7 helper phage (NEB). […]\nTo examine the specificity and binding affinity of the three phage clones, a comparative ELISA using the same phage titer was performed. […] The three clones were assessed for binding to cell-surface c-Met by flow cytometry and immunofluorescence assay using 293T cells ectopically expressing human c-Met. […] Soluble anti-c-Met scFvs were purified from periplasmic extract of phage-infected E-coli HB2151 by protein L agarose chromatography, and then assessed by coomassie blue staining representing purified anti-c-Met scFv proteins (S1, S20 and S21) localized in vicinity of 30 kDa corresponding to protein weight marker (upper panel of FIG. 8, panel B)."}, "[3]": {"conditions": "purified scFv, c-MetF932-Fc on CM5 chip"}},
  "data": [
    {"molecule": "B1", "values": [
      {"measurement": "Kd", "setting": "c-Met932-Fc protein; purified scFv 5 to 200 nM, c-MetF932-Fc coupled to CM5 chip, Kd calculated by BIAevaluation software", "result": 14.9, "unit": "nM"},
      {"measurement": "Koff", "setting": "c-Met932-Fc protein; [3]", "result": 0.00389, "unit": "s⁻¹"},
      {"measurement": "Kon", "setting": "c-Met932-Fc protein; [3]", "result": 261000, "unit": "M⁻¹ s⁻¹"},
      {"measurement": "Inhibition of binding activity of HGF to c-Met", "setting": "c-MetF932-Fc protein", "result": "only slightly inhibited"},
      {"measurement": "Binding to c-Met567-Fc compared to c-Met932-Fc", "setting": "c-Met567-Fc protein", "result": "dramatically decreased"}
    ]},
    {"molecule": "B2", "values": [
      {"measurement": "Binding to cellular c-Met on 293T cells", "setting": "[1]", "result": "higher than that of PC20 and PC21"},
      {"measurement": "Inhibition of HGF binding to H1993 cells", "setting": "[2]", "result": "more than 90%"},
      {"measurement": "c-Met binding affinity in comparative ELISA", "setting": "c-Met-Fc protein", "result": "stronger c-Met binding affinity than either PC20 or PC21"}
    ]}
  ]
}
